The values that follow come from paper PMC10180074, “Improved Stability and Catalytic Efficiency of ω-Transaminase in Aqueous Mixture of Deep Eutectic Solvents” (Molecules, 2023).

One data set has as its system C[C@@H](N)c1ccccc1. The experiment in a line: Michaelis-Menten fit; acetophenone by HPLC. The format is biochemical, Aspergillus terreus. The note with it: phosphate buffer, no DES, pyruvate constant, PLP, pH 8.0, 40 °C. The text has this: (§1) Michaelis-Menten fit; acetophenone by HPLC on ω-TA variant from Aspergillus terreus (E133A)
The test system of a further data set is CC(=O)C(=O)O. The experiment in a line: Michaelis-Menten fit; acetophenone by HPLC. The format is biochemical, Aspergillus terreus. The following applies: phosphate buffer, no DES, 1-(R)-PEA co-substrate, PLP, pH 8.0, 40 °C.
From the text: as §1

In general, Km refers to the substrate concentration at which the rate is half of its maximum. As usually defined, the kcat is the maximal rate divided by the concentration of active sites. By kcat/Km is commonly meant the turnover number divided by the Michaelis constant. In the case of “ω-TA variant from Aspergillus terreus (E133A) (Aspergillus terreus NIH2624; E133A)”, in the data set on C[C@@H](N)c1ccccc1, the Km was determined as 650 ± 70 µM, the kcat was 0.8027 ± 0.000833 s⁻¹ and the specificity constant (kcat/Km) stood at 1230 M⁻¹ s⁻¹. Moreover, in the data set with CC(=O)C(=O)O, the Km was found to be 640 ± 70 µM, the kcat worked out at 0.54967 ± 0.0005 s⁻¹ and the kcat/Km stood at 853 M⁻¹ s⁻¹.
